Ends that are not written are not given here. * marks the point of attachment. dicyano BODIPY FL = CC1=CC(C)=[N+]2C1=Cc1ccc(CCC(=O)*)n1[B-]2(C#N)C#N; FITC = O=C1OC2(c3ccc(O)cc3Oc3cc(O)ccc32)c2ccc(NC(=S)*)cc21

For eight molecules, Kd, IC50 and Ki results are on record in publication PMC9820559, “Investigation of the Fuzzy Complex between RSV Nucleoprotein and Phosphoprotein to Optimize an Inhibition Assay by Fluorescence Polarization” (International Journal of Molecular Sciences, 2022).

Holding throughout (conditions): both partners purified
The target of experiment [1] is T1, RSV N-RNA complex (full-length N protein in ring-shaped complexes with bacterial RNA) (human respiratory syncytial virus, UniProt P03418 1-391).
T1 construct: human RSV nucleoprotein N, full length; concentrations are of N protomer; also called N-RNA rings; source: in lysate for the co-purification; purified (glutathione-Sepharose, thrombin, Superdex 200) as N-RNA complex; copies: 10-11
T1 sequence (looked up): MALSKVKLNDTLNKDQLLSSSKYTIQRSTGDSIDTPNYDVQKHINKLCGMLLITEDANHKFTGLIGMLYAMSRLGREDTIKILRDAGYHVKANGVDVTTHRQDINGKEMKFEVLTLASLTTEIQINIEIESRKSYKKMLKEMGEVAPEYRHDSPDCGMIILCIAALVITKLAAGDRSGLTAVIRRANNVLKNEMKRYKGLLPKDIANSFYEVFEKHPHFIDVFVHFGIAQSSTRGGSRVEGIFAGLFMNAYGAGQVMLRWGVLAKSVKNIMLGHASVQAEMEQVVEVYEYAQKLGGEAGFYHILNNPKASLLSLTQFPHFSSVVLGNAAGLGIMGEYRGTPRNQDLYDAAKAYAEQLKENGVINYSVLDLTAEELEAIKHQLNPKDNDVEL
As to the kind of experiment: fluorescence polarisation; 200 nM dicyano BODIPY FL-labelled BCNn peptide, N-RNA varied; 20 mM Tris pH 8.0 without salt, 0.01% Brij-35; 20 °C; single site model.

Experiment [2] addresses T1, RSV N-RNA complex (full-length N …). In words: fluorescence polarisation; 200 nM dicyano BODIPY FL-labelled BCNn peptide, N-RNA varied; 20 mM Tris pH 8.0 with 100 mM NaCl, 0.01% Brij-35; 20 °C; single site model.
Experiment [3] has the same target. In words: fluorescence polarisation; 200 nM FTU-labelled Fn peptide, N-RNA varied (up to 40 µM N); 20 mM Tris pH 8.0 without salt, 0.01% Brij-35; 20 °C; 30 min incubation; single site model, or with a linear contribution where marked (*).
Experiment [4] shares this target. In words: fluorescence polarisation; competition: unlabeled P5E varied against 200 nM F5E on 10 µM N-RNA; Tris pH 8 without salt; Hill equation; Ki from the IC50-to-Ki server.
Experiment [5] has the same target. As to the kind of experiment: fluorescence polarisation; competition: unlabeled P7E varied against 200 nM F7E on 10 µM N-RNA; Tris pH 8 without salt; Hill equation; Ki from the IC50-to-Ki server.
Experiment [6] shares this target. In words: fluorescence polarisation; competition: unlabeled P peptide varied against 200 nM F11 on 10 µM N-RNA; Tris pH 8 without salt; Hill equation; Ki from the IC50-to-Ki server.

B1: BCN_(11EE) (dicyano BODIPY FL-labelled RSV P 11-mer, Ser232Glu/Ser237Glu) (peptide)
peptide: {dicyano BODIPY FL}-DEDNDLELEDF
notes: C-terminal 11 residues of RSV phosphoprotein P with phosphomimetic glutamates at 232 and 237; source: synthetic peptide (Fmoc/tBu solid phase, dicyano BODIPY FL coupled on resin, RP-HPLC purified)
Regarding B1, the Kd in experiment [1] turned out to be 0.28 ± 0.07 µM; in experiment [2] it was 0.26 ± 0.04 µM.

B2: BCN8E (dicyano BODIPY FL-labelled RSV P 8-mer, Ser237Glu) (peptide)
peptide: {dicyano BODIPY FL}-NDLELEDF
notes: C-terminal 8 residues of RSV phosphoprotein P with a phosphomimetic glutamate at 237; also called B8E; source: synthetic peptide (Fmoc/tBu solid phase, dicyano BODIPY FL coupled on resin, RP-HPLC purified)
On to B2, for which the Kd in experiment [1] amounted to 1.43 ± 0.08 µM; in experiment [2], 7.1 ± 0.1 µM.

B3: F5E (FTU-labelled RSV P 5-mer, Ser237Glu) (peptide)
peptide: {FITC}-ELEDF
notes: C-terminal 5 residues of RSV phosphoprotein P with a phosphomimetic glutamate at 237; source: synthetic peptide (Fmoc/tBu solid phase), FITC coupled in solution, HPLC purified
Regarding B3, the equilibrium dissociation constant (Kd) in experiment [3] was 5.9 ± 0.5 µM.

B4: P5E (unlabeled RSV P 5-mer, Ser237Glu) (peptide)
peptide: ELEDF
notes: unlabeled peptide from which F5E was made; C-terminal 5 residues of RSV phosphoprotein P; source: synthetic peptide (Fmoc/tBu solid phase, RP-HPLC purified)
For the molecule B4, in experiment [4], the half-maximal inhibitory concentration (IC50) is 433 ± 21 µM and the Ki amounted to 158 µM.

B5: BCN_(11SE) (dicyano BODIPY FL-labelled RSV P 11-mer, Ser237Glu) (peptide)
peptide: {dicyano BODIPY FL}-DSDNDLELEDF
notes: C-terminal 11 residues of RSV phosphoprotein P with a phosphomimetic glutamate at 237; source: synthetic peptide (Fmoc/tBu solid phase, dicyano BODIPY FL coupled on resin, RP-HPLC purified)
B5: the equilibrium dissociation constant (Kd) in experiment [1] was 0.82 ± 0.22 µM; in experiment [2], 0.55 ± 0.07 µM.

B6: P7E (unlabeled RSV P 7-mer, Ser237Glu) (peptide)
peptide: DLELEDF
notes: unlabeled peptide from which F7E was made; C-terminal 7 residues of RSV phosphoprotein P; source: synthetic peptide (Fmoc/tBu solid phase, RP-HPLC purified)
As for B6, in experiment [5], the IC50 worked out at 376 ± 26 µM and the inhibition constant Ki was determined as 74 µM. In addition, in experiment [6], the IC50 came out at 180 ± 11 µM and the inhibitory constant (Ki) turned out to be 75 µM.

B7: BCN_(10EE) (dicyano BODIPY FL-labelled RSV P 10-mer, Ser232Glu/Ser237Glu) (peptide)
peptide: {dicyano BODIPY FL}-EDNDLELEDF
notes: C-terminal 10 residues of RSV phosphoprotein P with phosphomimetic glutamates at 232 and 237; also called B_(10EE); source: synthetic peptide (Fmoc/tBu solid phase, dicyano BODIPY FL coupled on resin, RP-HPLC purified)
Take B7: the Kd in experiment [1] was 0.16 ± 0.03 µM; in experiment [2] it was 1.24 ± 0.31 µM.

B8: P9E (unlabeled RSV P 9-mer, Ser237Glu) (peptide)
peptide: DNDLELEDF
notes: unlabeled peptide from which F9E was made; C-terminal 9 residues of RSV phosphoprotein P; source: synthetic peptide (Fmoc/tBu solid phase, RP-HPLC purified)
Turning to B8, in experiment [6], the 50% inhibitory concentration (IC50) turned out to be 66 ± 6 µM and the Ki was 25 µM.
